Assay results taken from article PMC6312923 (Life Science Alliance, 2018).

What was measured:
Format in all cases: cell-based, human
U2OS cells = assay: Nuclear enlargement / re-replication in U2OS cells; details: siCdt2 72 h
Method: Next, we examined Cdt1 degradation after the onset of the S phase in the Cdt2^PIP-3A-expressing cells. Cyclin A is present in the S and G2 phase, when Cdt1 should be degraded. Thus, Cdt1 should be present in cells that are negative for cyclin A, and absent in cells that are positive for cyclin A ([Nishitani et al, 2006]; [Xouri et al., 2007a], [2007b]). Cdt1 degradation after the onset of the S phase is carried out by two ubiquitin ligases, CRL1^Skp2 and CRL4^Cdt2. We depleted the substrate recognition subunits, Cdt2 and/or Skp2, by siRNA, and the percentage of Cdt1 positive cells among cyclin A–positive cells was assessed by immunofluorescence. In control siRNA-transfected U2OS cells, ∼2% of cyclin A–positive cells stained positive for Cdt1. […]
Figure 8. […] The frequency of Cdt1-positive (+) cells among cyclin A–positive (+) cells was calculated (n = 3). […] (D) Cells treated with siCdt2 or control siLuc were measured for their nuclear size (n = 200 for each), and are shown in a scatter plot. […]
Double-stranded RNAs were transfected at 100 nM using Oligofectamine (Invitrogen) or HiPerFect (QIAGEN). […] For Cdt1 silencing in Fig 1A and B, unsychronized HeLa cells were transfected twice with 200 nM of Cdt1 siRNA or control luciferase siRNA using Lipofectamine 2000 with a time interval of 24 h and were analysed 48 h after the second transfection. […]

DDB1, Cul4A = assay: Co-immunoprecipitation of DDB1 / Cul4A with FLAG-tagged Cdt2 constructs; details: anti-FLAG IP, cross-linked cells
From the text: Before cell lysate preparation, cells were cross-linked.
Figure 3. […] HEK293 cells were transfected with plasmids expressing the indicated Cdt2 fused to a C-terminal FLAG tag, cross-linked, and precipitated with anti-FLAG antibodies (arrows). […] The bands in the blank lanes for Cul4A blotting correspond to the cross-reacting bands to pre-stained marker. […] HEK293 cells were transfected with the indicated plasmids and treated as in A. * indicates nonspecific bands derived from IgGs. (C) A schematic drawing of the Cdt2 domain structure highlighting the C-terminal PIP box and a sequence alignment of PIP boxes in various organisms. The alanine-changed PIP box mutant of Cdt2 was shown (PIP-3A) together with Cdt1 PIP box. (D) HEK293 cells were transfected with Cdt2^WT or PIP box mutant (Cdt2^PIP-3A) C-terminally fused to a FLAG tag, treated as in B, and Cdt2 was precipitated with anti-FLAG resin.
Control or Cdt2-FLAG expressing 293 cells that were UV irradiated (50 J/m^2), or not UV irradiated, or in the middle S phase (5 h after release from aphidicolon arrest) were fixed with 0.02% formaldehyde for 10 min, lysed using 0.1% Triton X-100-containing modified cytoskeleton (mCSK) buffer (10 mM Pipes, pH 7.9, 100 mM NaCl, 300 mM sucrose, 0.1% [vol/vol] Triton X-100, 1 mM phenylmethylsulfonyl fluoride, 10 mM β-glycerophosphate, 1 mMNa3VO4, 10 mM NaF), and then sonicated. After centrifugation (120,000g, Beckman Type 45Ti rotor, for 20 min at 4°C), the supernatants were mixed with anti-FLAG antibody-conjugated magnetic beads (M8823; Sigma-Aldrich) for 1 h at 4°C to obtain immunoprecipitates. The precipitate was washed with ice-cold 0.1% Triton X-100 containing mCSK buffer and subsequently suspended in SDS sample buffer.

p21 poly-ubiquitination = assay: Poly-ubiquitination of p21 in HEK293 cells; details: HEK293, MG132 3 h, chromatin fraction
Method: Figure 6. The Cdt2 PIP box is important for its recruitment to DNA damage sites and replication foci and for poly-ubiquitination activity. (A) HEK293 and stable Cdt2^WT or Cdt2^PIP-3A cells were locally UV irradiated, and stained for XPA and FLAG (Cdt2). XPA-positive spots were examined for FLAG signal, and its frequency was counted (%). More than 50 spots were examined. bar:10 μm. […] Bar: 10 μm. […] (D) Whole-cell extracts were prepared from HEK293 and stably transfected cells of Cdt2^WT or Cdt2^PIP-3A cells, separated into soluble (Sup) and chromatin-containing insoluble (Ppt) fractions, and were examined for indicated proteins. The asterisk indicates nonspecific bands. (E) HEK293 and stably transfected cells of Cdt2^WT or Cdt2^PIP-3A were treated with MG132 for 3 h. Whole-cell extracts (WCE) were prepared, separated into soluble (Sup) and insoluble (Ppt) fractions, and blotted with the indicated antibodies.
To consider this possibility, asynchronously growing control HEK293 cells and cells expressing Cdt2^WT or Cdt2^PIP-3A were treated with proteasome inhibitor MG132 and the levels of poly-ubiquitinated Cdt1 were examined. […] Cdt2^PIP-3A-expressing cells however had reduced level of both poly-ubiquitinated Cdt1 and p21 on chromatin.

Molecule	enlarged nuclei (re-replication) phenotype (U2OS cells)	binding to DDB1 (and Cul4A) (DDB1, Cul4A)	poly-ubiquitinated p21 on chromatin (p21 poly-ubiquitination)
Cdt2: Cdt2 tagged with GFP, transiently expressed in MCF7 cells	rescued		
Cdt2^PIP-3A: Cdt2 with I709, Y712, and F713 all mutated to alanine (protein, UniProt Q9NZJ0 1-730, looked up, variant I709A Y712A F713A, FLAG tag, Cdt2 with I709, Y712, and F713 all mutated to alanine) Denticleless protein homolog: MLFNSVLRQPQLGVLRNGWSSQYPLQSLLTGYQCSGNDEHTSYGETGVPVPPFGCTFSSAPNMEHVLAVANEEGFVRLYNTESQSFRKKCFKEWMAHWNAVFDLAWVPGELKLVTAAGDQTAKFWDVKAGELIGTCKGHQCSLKSVAFSKFEKAVFCTGGRDGNIMVWDTRCNKKDGFYRQVNQISGAHNTSDKQTPSKPKKKQNSKGLAPSVDFQQSVTVVLFQDENTLVSAGAVDGIIKVWDLRKNYTAYRQEPIASKSFLYPGSSTRKLGYSSLILDSTGSTLFANCTDDNIYMFNMTGLKTSPVAIFNGHQNSTFYVKSSLSPDDQFLVSGSSDEAAYIWKVSTPWQPPTVLLGHSQEVTSVCWCPSDFTKIATCSDDNTLKIWRLNRGLEEKPGGDKLSTVGWASQKKKESRPGLVTVTSSQSTPAKAPRAKCNPSNSSPSSAACAPSCAGDLPLPSNTPTFSIKTSPAKARSPINRRGSVSSVSPKPPSSFKMSIRNWVTRTPSSSPPITPPASETKIMSPRKALIPVSQKSSQAEACSESRNRVKRRLDSSCLESVKQKCVKSCNCVTELDGQVENLHLDLCCLAGNQEDLSKDSLGPTKSSKIEGAGTSISEPPSPISPYASESCGTLPLPLRPCGEGSEMVGKENSSPENKNWLLAMAAKRKAENPSPRSPSSQTPNSRRQSGKKLPSPVTITPSSMRKACTAAHRKSQEDFCGPEHSTEL		without significantly affecting interaction with Cul4A and DDB1	reduced level
